In general, IC50 refers to the midpoint of a concentration-inhibition curve.

Square brackets hold non-standard residues; d marks the D form. Nle = CCCC[C@H](N)C(=O)O

This experiment addresses T1, Human eIF4E (aa 28-217) with a C-terminal His tag (human, UniProt P06730 28-217).
T1 construct: also called HH-eIF4E; eukaryotic initiation factor 4E
Nature of the experiment: TR-FRET competition vs biotin-4G2 peptide on HH-eIF4E. A general note: In TR-FRET formats the signal depends on donor and acceptor labels being close together.

T1 sequence (P06730 other isoform, or with tags, fused parts or gaps limits assumed): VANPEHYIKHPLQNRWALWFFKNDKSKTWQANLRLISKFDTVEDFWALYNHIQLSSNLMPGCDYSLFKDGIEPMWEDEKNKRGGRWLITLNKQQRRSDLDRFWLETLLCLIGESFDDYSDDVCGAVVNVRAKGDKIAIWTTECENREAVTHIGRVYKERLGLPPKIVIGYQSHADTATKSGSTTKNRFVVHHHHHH
Procedure: Test peptides (1.6 mM stock in DMSO) were diluted 3 fold in series in DMSO and solutions were diluted 4 fold in Assay Buffer (50 mM NaPi, pH 6.5, 50 mM KCl, 1 mM DTT, 0.004% NP40 and 0.5 mg/ml gammaglobulin). […] The samples were incubated at room temperature for 20 minutes.
IC50 values were calculated using Condoseo software (Genedata AG, Basel, Switzerland).

B1: peptide of SEQ ID NO: 24 (peptide)
peptide: Ac-ARVYDLGLRRLRQRRRLRRERVRAKRYDREFLLAFQF[Nle]-NH2
SMILES: CCCC[C@H](NC(=O)[C@H](Cc1ccccc1)NC(=O)[C@H](CCC(N)=O)NC(=O)[C@H](Cc1ccccc1)NC(=O)[C@H](C)NC(=O)[C@H](CC(C)C)NC(=O)[C@H](CC(C)C)NC(=O)[C@H](Cc1ccccc1)NC(=O)[C@H](CCC(=O)O)NC(=O)[C@H](CCCNC(=N)N)NC(=O)[C@H](CC(=O)O)NC(=O)[C@H](Cc1ccc(O)cc1)NC(=O)[C@H](CCCNC(=N)N)NC(=O)[C@H](CCCCN)NC(=O)[C@H](C)NC(=O)[C@H](CCCNC(=N)N)NC(=O)[C@@H](NC(=O)[C@H](CCCNC(=N)N)NC(=O)[C@H](CCC(=O)O)NC(=O)[C@H](CCCNC(=N)N)NC(=O)[C@H](CCCNC(=N)N)NC(=O)[C@H](CC(C)C)NC(=O)[C@H](CCCNC(=N)N)NC(=O)[C@H](CCCNC(=N)N)NC(=O)[C@H](CCCNC(=N)N)NC(=O)[C@H](CCC(N)=O)NC(=O)[C@H](CCCNC(=N)N)NC(=O)[C@H](CC(C)C)NC(=O)[C@H](CCCNC(=N)N)NC(=O)[C@H](CCCNC(=N)N)NC(=O)[C@H](CC(C)C)NC(=O)CNC(=O)[C@H](CC(C)C)NC(=O)[C@H](CC(=O)O)NC(=O)[C@H](Cc1ccc(O)cc1)NC(=O)[C@@H](NC(=O)[C@H](CCCNC(=N)N)NC(=O)[C@H](C)NC(C)=O)C(C)C)C(C)C)C(N)=O
Molecule B1 had an IC50 of 19 nM.

B2: peptide of SEQ ID NO: 22 (peptide)
peptide: Ac-KRYDREFLLAFQF[Nle]RRLRQRRRLRRERVRA-NH2
SMILES: CCCC[C@H](NC(=O)[C@H](Cc1ccccc1)NC(=O)[C@H](CCC(N)=O)NC(=O)[C@H](Cc1ccccc1)NC(=O)[C@H](C)NC(=O)[C@H](CC(C)C)NC(=O)[C@H](CC(C)C)NC(=O)[C@H](Cc1ccccc1)NC(=O)[C@H](CCC(=O)O)NC(=O)[C@H](CCCNC(=N)N)NC(=O)[C@H](CC(=O)O)NC(=O)[C@H](Cc1ccc(O)cc1)NC(=O)[C@H](CCCNC(=N)N)NC(=O)[C@H](CCCCN)NC(C)=O)C(=O)N[C@@H](CCCNC(=N)N)C(=O)N[C@@H](CCCNC(=N)N)C(=O)N[C@@H](CC(C)C)C(=O)N[C@@H](CCCNC(=N)N)C(=O)N[C@@H](CCC(N)=O)C(=O)N[C@@H](CCCNC(=N)N)C(=O)N[C@@H](CCCNC(=N)N)C(=O)N[C@@H](CCCNC(=N)N)C(=O)N[C@@H](CC(C)C)C(=O)N[C@@H](CCCNC(=N)N)C(=O)N[C@@H](CCCNC(=N)N)C(=O)N[C@@H](CCC(=O)O)C(=O)N[C@@H](CCCNC(=N)N)C(=O)N[C@H](C(=O)N[C@@H](CCCNC(=N)N)C(=O)N[C@@H](C)C(N)=O)C(C)C
As to B2, the IC50 was found to be 198 nM. The value for Ac-GAAEAAAYVYDLLLRFLRQRRRLRRERVRA-NH2 [peptide of SEQ ID NO: 25] was 11000 nM.

B3: peptide of SEQ ID NO: 23 (peptide)
peptide: Ac-KRYDREFLLAFQF[Nle]VYDLGLRRLRQRRRLRRERVRA-NH2
SMILES: CCCC[C@H](NC(=O)[C@H](Cc1ccccc1)NC(=O)[C@H](CCC(N)=O)NC(=O)[C@H](Cc1ccccc1)NC(=O)[C@H](C)NC(=O)[C@H](CC(C)C)NC(=O)[C@H](CC(C)C)NC(=O)[C@H](Cc1ccccc1)NC(=O)[C@H](CCC(=O)O)NC(=O)[C@H](CCCNC(=N)N)NC(=O)[C@H](CC(=O)O)NC(=O)[C@H](Cc1ccc(O)cc1)NC(=O)[C@H](CCCNC(=N)N)NC(=O)[C@H](CCCCN)NC(C)=O)C(=O)N[C@H](C(=O)N[C@@H](Cc1ccc(O)cc1)C(=O)N[C@@H](CC(=O)O)C(=O)N[C@@H](CC(C)C)C(=O)NCC(=O)N[C@@H](CC(C)C)C(=O)N[C@@H](CCCNC(=N)N)C(=O)N[C@@H](CCCNC(=N)N)C(=O)N[C@@H](CC(C)C)C(=O)N[C@@H](CCCNC(=N)N)C(=O)N[C@@H](CCC(N)=O)C(=O)N[C@@H](CCCNC(=N)N)C(=O)N[C@@H](CCCNC(=N)N)C(=O)N[C@@H](CCCNC(=N)N)C(=O)N[C@@H](CC(C)C)C(=O)N[C@@H](CCCNC(=N)N)C(=O)N[C@@H](CCCNC(=N)N)C(=O)N[C@@H](CCC(=O)O)C(=O)N[C@@H](CCCNC(=N)N)C(=O)N[C@H](C(=O)N[C@@H](CCCNC(=N)N)C(=O)N[C@@H](C)C(N)=O)C(C)C)C(C)C
Molecule B3 returned an IC50 of 180 nM. With Ac-GAAEAAARVYDLGLRRLRQRRYLRRELLRF-NH2 [peptide of SEQ ID NO: 26] the figure was 250 nM.
